In patent publication US20240344040A1, “PROKARYOTIC AND EUKARYOTIC CELLS WITH BIOSYNTHESIZED SULFOTYROSINE FOR GENETIC INCORPORATION” (William Marsh Rice University, priority 2023, published 2024):
*: point of attachment. sulfate = O=S(=O)(O)*

B1: Madanin-1 sulfated at both Tyr32 and Tyr35 (protein)
chain: MYPERDSAKEGNQEQERALHVKVQKRTDGDADY(sulfate)DEY(sulfate)EEDGTTPTPDPTAPTAKPRLRGNKPHHHHHH
B2: hirudin: thrombin inhibitor; tyrosine-sulfated form compared with unsulfated; SEQ ID NO: 109 in Table 1 (protein, listed as Hirudo medicinalis)
chain: MKKNIAFLLASMFVFSIATNAYAMRYTACTESGQNQCICEGNDVCGQGRNCQFDSSGKKCVEGEGTRKPQNEGQHDFDPIPEEYLSHHHHHH
modifications: tyrosine sulfation
B3: wildtype chimadanin: thrombin inhibitor from the salivary gland of Haemaphysalis longicornis, His-tagged, expressed in E. coli; Table 1 sequence names seem swapped (protein)
chain: MQPKEKTKGVEVEGNPATLISARQMDVSYDEYEDNGPDVIPGEPAKPRGGPKNGAASGKFDQIPDFSSESHHHHHHH
B4: A0A091VQH7: putative sulfotransferase from Nipponia nippon, SEQ ID NO: 1 (protein)
chain: IALDKMEDLSLKETVVSRAEICEVEGIPFTKPICSTWDQVWKFKARPDDLLIATYTKAGTTWTQEIVDMIQQNGDVEKCRRATTYRRHPFLEWSIQEPPAASYSGLELAEAMPSPRTIKTHLPVQLLPPSFWEQNCKIIYVARNAKDNLVSYYHFHRMSKEMPDPGTWEEFMEKFMTGKVLWGSWYDHVKGWWKAKDRHRILYLFYEDMKENPKQEIQKILKFLEKDVNQEVLNKILHNTSFEIMKDNPMTNYTTEFQGIMDHSISPFMRKGVVGDWKNYFTVAQNEKFDEDYKKKMADTSLVFRTEL
modifications: Nipponia nippon

Assays:
thrombin [1] = biological target: T1, thrombin (Homo sapiens, UniProt P00734); test: chromogenic thrombin amidolytic activity assay; format: biochemical; settings: tight-binding model, Morrison equation; inhibitors expressed in E. coli, sulfotyrosine biosynthesized; read-out: Ki, inhibition of thrombin activity
Description: FIG. 18: Inhibition constants (Ki) of all thrombin inhibitors used in this study: Ki+standard error were calculated based on a tight-binding model, using Morrison equation in Prism. Standard errors were calculated from n=3 independent samples.
To test the thrombin inhibiting activity of the wild type inhibitors and their sulfotyrosine-containing mutants, chromogenic thrombin amidolytic activity assays were performed in the presence of a range of concentrations of each inhibitor. […] Double sulfation of chimadanin at both Tyr28 and Tyr31 further improved its Ki to 0.1 nM, consistent with the madanin-1 study. […] This may be due to the fact that co-translational folding is more efficient than that achieved via chemical synthesis.

thrombin [2] = biological target: T1, thrombin; settings: sulfated versus unsulfated hirudin; cited from earlier work
[3] = tested on: tyrosine sulfation (sulfotyrosine-containing sfGFP production); test: green fluorescent protein assay of tyrosine sulfotransferase activity; format: cell-based, Escherichia coli; settings: BL21(DE3), pBad vector, sfGFP134TAG reporter, LB medium
Description: To explore the activity of these sulfotransferases towards tyrosine, a green fluorescent protein assay was used (Chen et al., 2018; Chen et al., 2019). […] The suppressor plasmid (pUltra-sulfotyrosine) was used to suppress the amber codon (Asp134TAG) within a sfGFP variant encoded by the pLei-sfGFP134TAG plasmid in the presence of sulfotyrosine. Expression of full-length sfGFP was carried out in LB medium for 16 hours in parallel with controls BL21(DE3) harboring pUltra-sulfotyrosine, pLei-sfGFP134TAG and pBad-Empty in the presence and absence of exogenously fed 1 mM sulfotyrosine.

Molecule | Ki (thrombin [1]) | other results
B1 | 0.5 nM | 
B2 |  | increase of affinity for thrombin by tyrosine sulfation (thrombin [2]): more than 10 fold
B3 | 12.9 nM | 
B4 |  | increase in fluorescence compared to cells not given exogenous sulfotyrosine [3]: 2.5 fold
